According to patent US20250277029A1 (Amgen, published 2025):
Positions count from the first letter of the chain named. In names and notes the source's numbering stands.

B1: LIBC673952-1 (IgG1 SEFL2 mAb) (antibody, V domains shown)
VH: QVQLQESGPGLVKPSQTLSLTCTVSGGSIRRGGDYWSWIRQHPGKGLEWIGHVYYTGQTTYNPSFRGRVTISVNTYKNQFSLKLSSVTAADTAVYYCARDYDILTGYSYYYYGLDVWGQGTTVTVSS
VL: DIVMTQSPLSLPVTPGEPASISCRSSQSLLHRSGYNYLDWYLQKPGQSPQLLIYQGSNRASGVPDRFSGSGSGTDFTLKISRVEAEDVGVYYCRQARALPRTFGQGTKVEIKR
B2: LIBC680562-1 (IgG1 SEFL2 mAb) (antibody, V domains shown)
VH: QVQLQESGPGLVKPSQTLSLTCTVSGGSIRRGGDYWAWIRQHPGKGLEWIGHIYQTGSTNYNPRFKGRATISVNTYKNQFSLKLSSVTAADTAVYYCARNYDTLTGYSYYYYGMDVWGQGTTVTVSS
VL: DIQMTQSPSSLSASVGDRVTITCRASQSISSYLNWYQQKPGKAPKLLIYSARRLSSGVPSRFSGSGSGTDFTLTISSLQPEDFATYYCQQYAKSPITFGGGTKVEIKR
B3: LIBC673965-1 (IgG1 SEFL2 mAb) (antibody, V domains shown)
VH: QVQLQESGPGLVKPSQTLSLTCTVSGGSIRRGGDYWSWIRQHPGKGLEWIGHVYYTGQTAYNPSLRGRVRISVNTYKNQFSLKLSSVTAADTAVYYCARGYDTSGYSYYYYGLDVWGQGTTVTVSS
VL: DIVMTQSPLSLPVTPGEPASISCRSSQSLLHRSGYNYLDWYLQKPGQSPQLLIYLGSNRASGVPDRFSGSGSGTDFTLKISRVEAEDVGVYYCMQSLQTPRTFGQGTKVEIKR
B4: LIBC680574-1 (IgG1 SEFL2 mAb) (antibody, V domains shown)
VH: B2 VH with I53V, Q55Y, N60K, R64S, G67D
VL: B2 VL with S50G, S55G, A92S, K93S, S94L, I96V
B5: LIBC673972-1 (IgG1 SEFL2 mAb) (antibody, V domains shown)
VH: B3 VH with V53I, S64N, G67N, T103A
VL: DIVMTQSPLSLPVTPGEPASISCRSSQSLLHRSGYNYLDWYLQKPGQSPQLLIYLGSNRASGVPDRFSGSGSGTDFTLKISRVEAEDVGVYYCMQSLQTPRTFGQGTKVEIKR
B6: LIBC680773-1 (IgG1 SEFL2 mAb) (antibody, V domains shown)
VH: B2 VH with I53V, Q55Y, G67D, L104V
VL: B2 VL with S50K, R53L, A92S, K93R, S94L, I96L
B7: LIBC673982-1 (IgG1 SEFL2 mAb) (antibody, V domains shown)
VH: B3 VH with V53I, Q58S, A60T, L65F, G100D, T103I, L113M
VL: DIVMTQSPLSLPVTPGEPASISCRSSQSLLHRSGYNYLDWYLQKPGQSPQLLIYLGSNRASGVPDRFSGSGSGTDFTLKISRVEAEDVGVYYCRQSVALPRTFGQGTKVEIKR
B8: LIBC680800-1 (IgG1 SEFL2 mAb) (antibody, V domains shown)
VH: B2 VH
VL: B2 VL with R53A, A92R, S94F, I96L
B9: LIBC674090-1 (IgG1 SEFL2 mAb) (antibody, V domains shown)
VH: B3 VH with V53I, T56A, Q58S, S64N, L65F
VL: B1 VL with R94M, A96S, R97L, A98Q, L99T
B10: LIBC680812-1 (IgG1 SEFL2 mAb) (antibody, V domains shown)
VH: B2 VH with A37G, I53V, N60K, R64S, G67D
VL: B2 VL with A92R, K93S, S94Y
B11: LIBC674200-1 (IgG1 SEFL2 mAb) (antibody, V domains shown)
VH: B3 VH with S64N, L65F, G67N, T103V, L113M
VL: B1 VL with Q55L, D65G, R94M, A96S, R97L, A98Q, L99T
B12: LIBC681593-1 (IgG1 SEFL2 mAb) (antibody, V domains shown)
VH: B2 VH
VL: B2 VL with S50N, S55G, A92R, K93S, I96V
B13: LIBC674200-1 (LC: G76D) (IgG1 SEFL2 mAb) (antibody, V domains shown)
VH: B3 VH with S64N, L65F, G67N, T103V, L113M
VL: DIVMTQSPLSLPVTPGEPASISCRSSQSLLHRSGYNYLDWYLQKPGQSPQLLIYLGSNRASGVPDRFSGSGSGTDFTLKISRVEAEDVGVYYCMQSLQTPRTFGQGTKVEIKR
B14: LIBC674090-1 (Fab on yeast) (Fab, V domains shown)
VH: B3 VH with V53I, T56A, Q58S, S64N, L65F
VL: B1 VL with R94M, A96S, R97L, A98Q, L99T
notes: Clone of the Fab-yeast libraries
B15: LIBC674200-1 (Fab on yeast) (Fab, V domains shown)
VH: B3 VH with S64N, L65F, G67N, T103V, L113M
VL: B1 VL with Q55L, D65G, R94M, A96S, R97L, A98Q, L99T
notes: Original clone of the Fab-yeast libraries, without the LC G76D reversion
B16: LIBC674214-1 (Fab on yeast) (Fab, V domains shown)
VH: B3 VH with T56E, Q58S, A60K, L65F, T103V
VL: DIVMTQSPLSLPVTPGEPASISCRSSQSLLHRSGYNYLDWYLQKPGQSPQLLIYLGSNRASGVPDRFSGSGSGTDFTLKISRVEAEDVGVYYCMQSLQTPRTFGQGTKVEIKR
notes: as for B14
B17: LIBC674216-1 (Fab on yeast) (Fab, V domains shown)
VH: B3 VH with V53I, G67N, T103I
VL: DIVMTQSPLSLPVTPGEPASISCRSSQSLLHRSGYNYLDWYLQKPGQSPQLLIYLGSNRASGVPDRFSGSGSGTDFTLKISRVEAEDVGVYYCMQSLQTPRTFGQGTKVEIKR
notes: as for B14
B18: LIBC674229-1 (Fab on yeast) (Fab, V domains shown)
VH: B3 VH with V53I, Y55Q, A60K, L65F, R66K, T103V, L113M
VL: B1 VL with R94M, A96S, R97L, A98Q, L99T
notes: as for B14
B19: LIBC674235-1 (Fab on yeast) (Fab, V domains shown)
VH: B3 VH with T56A, Q58S, A60T, R66K, G67S, T103V
VL: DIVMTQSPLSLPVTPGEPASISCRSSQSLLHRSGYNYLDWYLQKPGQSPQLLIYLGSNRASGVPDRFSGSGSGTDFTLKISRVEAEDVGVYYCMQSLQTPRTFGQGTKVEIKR
notes: as for B14
B20: LIBC674257-1 (Fab on yeast) (Fab, V domains shown)
VH: B3 VH with V53I, A60K, T103I
VL: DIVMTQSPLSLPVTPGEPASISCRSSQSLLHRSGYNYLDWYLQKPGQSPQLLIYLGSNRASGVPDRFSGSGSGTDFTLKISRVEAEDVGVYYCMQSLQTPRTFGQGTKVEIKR
notes: as for B14
B21: LIBC674276-1 (Fab on yeast) (Fab, V domains shown)
VH: B3 VH with Q58S, A60T, S64N, L65F, R66K, T103A
VL: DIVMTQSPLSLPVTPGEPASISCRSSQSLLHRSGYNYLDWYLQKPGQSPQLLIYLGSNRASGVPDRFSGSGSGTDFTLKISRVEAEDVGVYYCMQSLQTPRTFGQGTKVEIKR
notes: as for B14
B22: LIBC673952-1 (Fab on yeast) (Fab, V domains shown)
VH: B1 VH
VL: B1 VL
notes: as for B14

molecular target: human CB1 on stably transfected CB1 CHO cells (human, UniProt P21554 1-472); test: cell-based or functional assay
Sequence (P21554 whole entry): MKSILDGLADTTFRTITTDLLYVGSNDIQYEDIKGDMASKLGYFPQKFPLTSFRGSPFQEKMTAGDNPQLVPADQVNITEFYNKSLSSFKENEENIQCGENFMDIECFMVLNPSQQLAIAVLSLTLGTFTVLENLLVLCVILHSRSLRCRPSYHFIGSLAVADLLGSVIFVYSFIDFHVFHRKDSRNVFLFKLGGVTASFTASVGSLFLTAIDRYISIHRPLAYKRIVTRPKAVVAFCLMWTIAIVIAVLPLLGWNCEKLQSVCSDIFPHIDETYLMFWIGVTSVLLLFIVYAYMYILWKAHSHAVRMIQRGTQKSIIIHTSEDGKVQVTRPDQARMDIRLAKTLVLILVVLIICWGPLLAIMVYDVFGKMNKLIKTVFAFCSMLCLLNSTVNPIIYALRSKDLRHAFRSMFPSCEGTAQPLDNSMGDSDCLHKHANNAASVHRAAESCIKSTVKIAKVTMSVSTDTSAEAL

Binder	IC50 (nM, n = 4), antagonist activity, TR-FRET cAMP assay [nM]
B1	2.48
B2	0.71
B3	2.21
B4	0.75
B5	2.43
B6	0.74
B7	2.11
B8	1.57
B9	1.76
B10	0.68
B11	2.39
B12	0.61
B13	2.23

molecular target: T1, GFP-fused huCB1-SMALP (human, UniProt P21554 1-472); test: flow cytometry, yeast-displayed Fab, 5 nM CB1 SMALP
T1 construct: Human CB1 fused to GFP in styrene maleic acid lipoparticles, made as in Luna et al. 2018; also called huCB1-GFP-SMALP; GFP-tagged huCB1-SMALP; not shown: GFP fused to huCB1
T1 sequence (P21554 whole entry, the tested form may be a part): as the sequence (P21554 whole entry) above

Binder	relative binding fold change compared to LIBC523797-1(Fab) [fold]
B14	1.2
B15	1.33
B16	1.17
B17	1.1
B18	1.11
B19	1.3
B20	1.19
B21	1.17
B22	1.23

molecular target: T1, GFP-fused huCB1-SMALP; test: flow cytometry, yeast-displayed Fab, 10 nM CB1 SMALP

Binder	relative binding fold change compared to LIBC523797-1(Fab) [fold]
B14	2.85
B15	3.31
B16	2.1
B17	1.96
B18	3.17
B19	2.05
B20	3.34
B21	2.06
B22	1.91

molecular target: T2, His-tagged huCB1-ND (human, UniProt P21554 99-414, limits assumed); test: flow cytometry, yeast-displayed Fab, 0.5 nM CB1 ND
T2 construct: The real construct may be truncated or engineered; also called CB1-nanodisc; not shown: histidine purification tag
T2 sequence (P21554 99-414 limits assumed): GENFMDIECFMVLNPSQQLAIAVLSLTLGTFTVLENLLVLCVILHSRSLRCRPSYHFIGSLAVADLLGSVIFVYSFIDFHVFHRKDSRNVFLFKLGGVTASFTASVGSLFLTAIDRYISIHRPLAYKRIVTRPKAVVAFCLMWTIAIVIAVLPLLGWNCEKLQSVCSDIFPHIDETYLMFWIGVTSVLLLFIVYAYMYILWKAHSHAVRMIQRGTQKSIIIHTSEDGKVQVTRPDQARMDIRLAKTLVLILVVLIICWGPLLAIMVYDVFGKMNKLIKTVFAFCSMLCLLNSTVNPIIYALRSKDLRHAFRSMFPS

Binder	relative binding fold change compared to LIBC523797-1(Fab) [fold]
B14	1.35
B15	2.08
B16	1.76
B17	1.66
B18	2.22
B19	1.28
B20	1.86
B21	2.04
B22	0.77

molecular target: T3, Empty ND; test: flow cytometry, yeast-displayed Fab, 50 nM Empty ND
T3 construct: It carries no receptor; the scaffold is its only protein; also called empty nanodisc

Binder	relative binding fold change compared to LIBC523797-1(Fab) [fold]
B14	0.99
B15	0.74
B16	1.09
B17	0.65
B18	0.75
B19	0.72
B20	0.73
B21	0.51
B22	0.62
